Literature values as cited in patent US20250304973A1, “HIGH-AFFINITY THROMBIN APTAMERS AND METHODS OF USE” (Ayass Bioscience LLC, priority 2024, published 2025).

Details: reversal of dabigatran

B1: Idarucizumab: a monoclonal antibody that binds to dabigatran and neutralizes its anticoagulant properties (antibody, chains of the INN, looked up, V domains shown)
VH: QVQLQESGPGLVKPSETLSLTCTVSGFSLTSYIVDWIRQPPGKGLEWIGVIWAGGSTGYNSALRSRVSITKDTSKNQFSLKLSSVTAADTAVYYCASAAYYSYYNYDGFAYWGQGTLVTVSS
VL: DVVMTQSPLSLPVTLGQPASISCKSSQSLLYTDGKTYLYWFLQRPGQSPRRLIYLVSKLDSGVPDRFSGSGSGTDFTLKISRVEAEDVGVYYCLQSTHFPHTFGGGTKVEIK
modifications: Fab
time to reversal of anticoagulant effect: this in ~2-4 hours
